Test results: patent US20060264616
Positions count from the first letter of the chain named. Names may count otherwise.

Tests used:
[1] = target: reconstituted tissue factor (Innovin, Dade) and membrane (UniProt P13726)
[2] = target: T1, reconstituted tissue factor (Innovin, Dade) and membrane, P13726
T1 chain: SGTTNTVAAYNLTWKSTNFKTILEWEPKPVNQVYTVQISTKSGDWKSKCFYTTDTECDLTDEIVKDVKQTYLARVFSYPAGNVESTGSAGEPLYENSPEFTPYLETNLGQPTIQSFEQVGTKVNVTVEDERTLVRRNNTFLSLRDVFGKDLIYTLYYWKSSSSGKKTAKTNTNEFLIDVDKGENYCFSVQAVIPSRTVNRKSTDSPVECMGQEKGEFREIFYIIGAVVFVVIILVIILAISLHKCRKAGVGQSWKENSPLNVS

Factor VII mutant Q11E33I34F35
activity (competitive assay described in Example 6) [1]: displayed similar activity as the Q11E33F34I35 mutant

B1: factor VII F5K (protein)
chain: ANAKLEELRPGSLERECKEEQCSFEEAREIFKDAERTKLFWISYSDGDQCASSPCQNGGSCKDQLQSYICFCLPAFEGRNCETHKDDQLICVNENGGCEQYCSDHTGTKRSCRCHEGYSLLADGVSCTPTVEYPCGKIPILEKRNASKPQGRIVGGKVCPKGECPWQVLLLVNGAQLCGGTLINTIWVVSAAHCFDKIKNWRNLIAVLGEHDLSEHDGDEQSRRVAQVIIPSTYVPGTTNHDIALLRLHQPVVLTDHVVPLCLPERTFSERTLAFVRFSLVSGWGQLLDRGATALELMVLNVPRLMTQDCLQQSRKVGDSPNITEYMFCAGYSDGSKDSCKGDSGGPHATHYRGTWYLTGIVSWGQGCATVGHFGVYTRVSQYIEWLQKLMRSEPRPGVLLRAPFP
activity in the competitive assay described in Example 6 [2]: a protein with 33% of the activity of wild type factor VII

B2: Factor VII mutant Q11E33F34I35 (protein)
chain: B1 chain with K4F, P10Q, K32E, D33F, A34I
activity in the competitive assay described in Example 6 [2]: The activity of the resulting mutant Q11E33F34135 was 60% that of the Q11E33F34 mutant

B3: factor VII mutant Q11E33D36 (protein)
chain: B1 chain with K4F, P10Q, K32E, E35D
activity in the competitive assay described in Example 6 [2]: had 70% the activity of the Q11E33 mutant
